Results: article PMC4600727 (2015)
Positions count from the first letter of the chain named. Names may count otherwise. One block for each binder: values may come before it.

Tests used:
Stau dsRBD5 Y971K = target: T1, Stau dsRBD5 Y971K (Drosophila, UniProt P25159 951-1018); test: ITC
T1 chain: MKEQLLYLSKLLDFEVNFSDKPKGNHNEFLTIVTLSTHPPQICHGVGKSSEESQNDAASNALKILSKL

Trx-Stau951-1,018 [1] = target: T2, Trx-Stau951-1,018 (Drosophila, UniProt P25159 951-1018); test: ITC; Mira fragments injected into Stau fragments; 25 °C; 50 mM Tris pH 8.0, 100 mM NaCl, 1 mM EDTA
T2 chain: T1 chain with K21Y

Trx-Stau951-1,018 [2] = target: T2, Trx-Stau951-1,018; test: ITC

Kd (Stau dsRBD5 Y971K): 8.7 µM
Kd (Trx-Stau951-1,018 [1]): 1.07 µM
B1: Trx-Mira514–595 (domain or fragment)
chain: NYQLTLTNTRATVNILMERLKKSDADVEQYRAELESVQLAKGALEQSYLVLQADAEQLRQQLTESQDALNALRSSSQTLQSE

Kd (Trx-Stau951-1,018 [2]): 72.5 µM
B2: Mira514–595 R532A (domain or fragment)
chain: B1 chain with R19A
